These results are taken from patent publication US20130216530A1, “Methods for optimizing biological response modifier therapy using therapeutic drug monitoring of immunosuppressants” (Exagen Diagnostics, Inc., priority 2012, published 2013).

Holding throughout (type): in vivo, human
A short description of series [1]: RBC MTXPG3 levels in RA patients measured by liquid chromatography. The protocol:
(§1) Adult RA patients receiving weekly MTX with infliximab for more than three months were enrolled in a cross sectional study. Blood was collected at trough before the infusion of infliximab. Red blood cell (RBC) MTXPGs were measured using liquid chromatography while circulating levels of infliximab were measured using a cell based assay. ATIs were measured using enzyme immunoassays. Statistical analysis consisted of regression analyses and Wilcoxon tests.
(§2) The study was cross sectional study in adult RA patients at three study sites (Brigham and Women's, Boston, Mass.; The Center for Rheumatology, Albany, N.Y.; and Altoona Center for Clinical Research, Altoona Pa.). All RA patients (according to the 2010 ACR criteria for RA)^8 enrolled had received a stable dose of MTX (for at least 4 months) in combination with infliximab for at least 3 months. Clinical parameters and demographic data were collected at the time of a single study visit. The study was approved by an independent ethic committee and informed consent was collected from all patients. Blood was drawn in EDTA containing tube and one SST tube at the time of the study visit. The blood was drawn just prior to the infliximab infusion (trough) and shipped overnight using refrigerated transportation kits. Disease activity was estimated using the clinical disease activity index (CDAI). […] RBC MTXPG3 were measured using a liquid chromatography developed and validated in our laboratory^9. Quantification limit was 5 nmol/L RBCs. Circulating levels of infliximab in serum were measured by Biomonitor (Copenhagen, DK) using a cell based assay consisting of erythroleukemic K562 cells transfected with a NFKB regulated firefly luciferase reporter-gene construct^10. Antibodies to infliximab (ATIs) were measured using a proprietary enzyme immunoassay technique (Biomonitor, Copenhagen, Denmark). The cutoff for positive ATI was 0.9 U/L. Anti-citrullinated peptide auto-antibodies levels (Anti-MCV) were measured using ELISA (Orgentec Diagnostika, Mainz, Germany). […]

A short description of series [2]: Circulating trough infliximab levels in serum of RA patients on MTX plus infliximab (K562 NFKB-luciferase cell based assay). How it is done:
as §1, §2

The nature of series [3]: Antibodies to infliximab (ATIs) in RA patients by enzyme immunoassay, cutoff 0.9 U/L. How it is done:
as §1
The study was cross sectional study in adult RA patients at three study sites (Brigham and Women's, Boston, Mass.; The Center for Rheumatology, Albany, N.Y.; and Altoona Center for Clinical Research, Altoona Pa.). All RA patients (according to the 2010 ACR criteria for RA)^8 enrolled had received a stable dose of MTX (for at least 4 months) in combination with infliximab for at least 3 months. Clinical parameters and demographic data were collected at the time of a single study visit. The study was approved by an independent ethic committee and informed consent was collected from all patients. Blood was drawn in EDTA containing tube and one SST tube at the time of the study visit. The blood was drawn just prior to the infliximab infusion (trough) and shipped overnight using refrigerated transportation kits. Disease activity was estimated using the clinical disease activity index (CDAI). Upon receipt of blood specimen, erythrocytes and serum were isolated and stored frozen at −80° C. RBC MTXPG3 were measured using a liquid chromatography developed and validated in our laboratory^9. Quantification limit was 5 nmol/L RBCs. Circulating levels of infliximab in serum were measured by Biomonitor (Copenhagen, DK) using a cell based assay consisting of erythroleukemic K562 cells transfected with a NFKB regulated firefly luciferase reporter-gene construct^10. Antibodies to infliximab (ATIs) were measured using a proprietary enzyme immunoassay technique (Biomonitor, Copenhagen, Denmark). The cutoff for positive ATI was 0.9 U/L. Anti-citrullinated peptide auto-antibodies levels (Anti-MCV) were measured using ELISA (Orgentec Diagnostika, Mainz, Germany). Statistical analysis consists of multivariate logistic/linear regression and Wilcoxon tests as appropriate.

Where only a bound is given, the exact number is not on record here.

Turning to `CN(Cc1cnc2nc(N)nc(N)c2n1)c1ccc(C(=O)N[C@@H](CCC(=O)N[C@@H](CCC(=O)N[C@@H](CCC(=O)O)C(=O)O)C(=O)O)C(=O)O)cc1` [MTXPG3], the “median RBC MTXPG3, patients without ATI” value in series [1] (ATI negative patients) is given as 30 nmol/L. The “median RBC MTXPG3, patients having ATIs” value in series [1] (ATI positive patients) was determined as 22 nmol/L. In series [1] (all 61 RA patients on weekly MTX, red blood cells), the “median RBC MTXPG3 levels” value was 28 nmol/L.

With infliximab, the “median infliximab levels, patients without ATI” value in series [2] (ATI negative patients, trough) was found to be 5.0 µg/mL. In addition, in series [2] (ATI positive patients, trough), the “median infliximab levels, patients with ATIs” value is under 0.5 µg/mL. In series [2] (all 61 RA patients, MTX with infliximab, serum at trough before infusion), the “median trough infliximab levels” value turned out to be 3.3 µg/mL. In addition, the “patients with ATIs detected” value in series [3] (11 of 61 patients, ATI>0.9 U/L) was found to be 18%. For the same compound, the “patients testing positive for ATI” value in series [3] (12 patients with RBC MTXPG3 above 50 nmol/L) is “None and none”. The “fold lower likelihood of having ATI (odds ratio)” value in series [3] (RBC MTXPG3 levels above 25 nmol/L, logistic regression, CI95%: 1.1-20.8) is 4.7 fold. The “number of patients with ATI” value in series [3] (of 4 patients with MTXPG3<5 nmol/L) is given as 3. Besides, in series [3] (patients with RBC MTXPG3 below 5 nmol/L (3 out of 4)), the “patients presenting with ATI” value was found to be 75%.
